The results in this text go back to patent EP4806514A2 (Lepu Biopharma Co., Ltd., dated 2025).

Assay [1] addresses T1, human CDH6-his protein (Katcus, Cat. No. CDH-HM106) (human, UniProt P55285 54-615, limits assumed).
T1 construct: Bought; also called human CDH6 protein
T1 sequence (looked up): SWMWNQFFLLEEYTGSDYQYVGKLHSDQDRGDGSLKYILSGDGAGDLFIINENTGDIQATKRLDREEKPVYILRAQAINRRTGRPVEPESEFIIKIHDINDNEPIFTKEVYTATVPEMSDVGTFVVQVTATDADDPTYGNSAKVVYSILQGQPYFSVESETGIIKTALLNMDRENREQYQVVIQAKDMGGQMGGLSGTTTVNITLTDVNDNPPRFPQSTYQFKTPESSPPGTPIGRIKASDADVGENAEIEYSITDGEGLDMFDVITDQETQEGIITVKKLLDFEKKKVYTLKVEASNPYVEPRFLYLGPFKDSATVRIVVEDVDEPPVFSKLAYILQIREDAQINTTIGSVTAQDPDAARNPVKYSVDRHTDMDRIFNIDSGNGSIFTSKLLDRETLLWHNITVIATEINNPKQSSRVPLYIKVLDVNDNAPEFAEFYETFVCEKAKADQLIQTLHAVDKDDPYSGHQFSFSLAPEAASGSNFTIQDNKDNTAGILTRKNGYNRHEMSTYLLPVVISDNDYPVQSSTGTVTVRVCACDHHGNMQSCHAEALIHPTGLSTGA
Briefly: ELISA, antigen coated at 1 ug/mL. Background: In an ELISA, binding on a coated surface is turned into a signal by an enzyme label.

Assay [2] addresses T2, mouse CDH17-his (Kactus, Cat. No. CDH-MM117) (mouse, UniProt Q9R100 23-786, limits assumed).
T2 construct: Bought; also called mouse CDH17 protein
T2 sequence (looked up): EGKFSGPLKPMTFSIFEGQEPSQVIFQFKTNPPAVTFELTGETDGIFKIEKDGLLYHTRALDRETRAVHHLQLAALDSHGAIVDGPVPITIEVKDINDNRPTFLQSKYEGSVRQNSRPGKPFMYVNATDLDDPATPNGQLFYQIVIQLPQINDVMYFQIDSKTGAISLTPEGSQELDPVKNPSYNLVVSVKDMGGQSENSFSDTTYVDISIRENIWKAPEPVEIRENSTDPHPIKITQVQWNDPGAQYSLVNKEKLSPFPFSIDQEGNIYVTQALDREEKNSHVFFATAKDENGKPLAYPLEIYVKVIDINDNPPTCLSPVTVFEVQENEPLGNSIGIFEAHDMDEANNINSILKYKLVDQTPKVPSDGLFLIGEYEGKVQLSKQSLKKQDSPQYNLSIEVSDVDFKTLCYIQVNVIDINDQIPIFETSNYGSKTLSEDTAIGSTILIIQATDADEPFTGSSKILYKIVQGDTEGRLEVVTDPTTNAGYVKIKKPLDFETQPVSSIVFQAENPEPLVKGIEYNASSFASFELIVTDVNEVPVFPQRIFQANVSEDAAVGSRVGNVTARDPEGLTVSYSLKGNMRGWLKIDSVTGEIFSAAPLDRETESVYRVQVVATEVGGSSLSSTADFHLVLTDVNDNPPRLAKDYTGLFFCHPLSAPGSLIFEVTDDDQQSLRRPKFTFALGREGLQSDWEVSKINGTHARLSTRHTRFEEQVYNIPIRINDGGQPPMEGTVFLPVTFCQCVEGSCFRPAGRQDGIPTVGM
Briefly: ELISA, antigen coated at 1 ug/mL.

Assay [3] addresses T3, rhesus CDH17-his (Kactus, Cat. No. CDH-RM117) (rhesus, UniProt A0A1D5R2B4 23-784).
T3 construct: range 23-784; also called rhesus CDH17 protein
T3 sequence: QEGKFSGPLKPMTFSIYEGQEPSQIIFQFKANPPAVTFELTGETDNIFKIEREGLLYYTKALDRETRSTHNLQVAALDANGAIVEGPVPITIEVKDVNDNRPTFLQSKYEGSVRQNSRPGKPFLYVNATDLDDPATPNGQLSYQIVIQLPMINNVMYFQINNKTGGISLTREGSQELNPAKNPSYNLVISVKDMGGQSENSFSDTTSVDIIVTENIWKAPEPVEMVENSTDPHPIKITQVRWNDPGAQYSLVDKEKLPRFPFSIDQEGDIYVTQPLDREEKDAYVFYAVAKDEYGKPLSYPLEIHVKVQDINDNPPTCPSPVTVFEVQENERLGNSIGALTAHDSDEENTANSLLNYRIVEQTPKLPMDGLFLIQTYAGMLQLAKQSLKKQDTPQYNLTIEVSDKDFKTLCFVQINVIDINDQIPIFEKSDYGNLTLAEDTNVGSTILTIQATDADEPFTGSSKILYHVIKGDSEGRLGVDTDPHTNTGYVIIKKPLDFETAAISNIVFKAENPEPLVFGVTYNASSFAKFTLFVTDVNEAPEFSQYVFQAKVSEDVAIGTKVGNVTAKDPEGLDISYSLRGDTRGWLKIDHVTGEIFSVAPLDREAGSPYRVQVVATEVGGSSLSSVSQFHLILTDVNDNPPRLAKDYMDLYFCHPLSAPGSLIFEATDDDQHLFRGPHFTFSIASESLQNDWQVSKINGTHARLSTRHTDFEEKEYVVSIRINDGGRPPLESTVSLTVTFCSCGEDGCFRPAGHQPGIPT
The experiment in a line: ELISA, rhesus CDH17-his coated at 1 ug/mL.

B1: 29H8D3-z12 (antibody, V domains shown)
VH: QVQLVQSGAEVKKPGASVKVSCKASGYTFTDHTIHWMRQRPGQGLEWIGYIYPRDGYTKYNEKFKDRATLTADTSTSTAYMELRSLRSDDTAVYYCARFYYGYWYFDVWGQGTTVTVSS
VL: DIVMTQSPLSLPVTPGEPASISCRSSKSLLRSNGNTYLYWFLQKPGQSPQVLIYRMSNLASGVPDRFSGSGSGTDFTLKISRVEAEDVGVYYCMQHLEYPFTFGQGTKLEIK
notes: Humanized, human IgG1 constant region; also called 29H8D3-z12 mAb
The term EC50 denotes the midpoint of the concentration-response curve. A low value points to greater potency. Consider B1, for which the binding result in assay [1] and in assay [2] was “no binding (tested: titrated from 50 nM)” each time. Also, it took 0.163 nM to reach a half-maximal effect in assay [3] (EC50).
